In article PMC4383751:

Molecular target: wild-type pyruvate kinase isoform M2 (PKM2^WT) (human) (UniProt P14618)
Assay: SEC; gel filtration on Superdex 200 10/300 GL, in the absence of FBP; low protein concentration (less than 0.2 mg/mL); similar protein concentrations and conditions for all proteins; oxalate added in a further run (Fig. S1F)

wild-type pyruvate kinase isoform M2 (PKM2^WT), P14618 1-531 (enzyme; other documents disagree on this pair), sequence (P14618 whole entry, canonical isoform): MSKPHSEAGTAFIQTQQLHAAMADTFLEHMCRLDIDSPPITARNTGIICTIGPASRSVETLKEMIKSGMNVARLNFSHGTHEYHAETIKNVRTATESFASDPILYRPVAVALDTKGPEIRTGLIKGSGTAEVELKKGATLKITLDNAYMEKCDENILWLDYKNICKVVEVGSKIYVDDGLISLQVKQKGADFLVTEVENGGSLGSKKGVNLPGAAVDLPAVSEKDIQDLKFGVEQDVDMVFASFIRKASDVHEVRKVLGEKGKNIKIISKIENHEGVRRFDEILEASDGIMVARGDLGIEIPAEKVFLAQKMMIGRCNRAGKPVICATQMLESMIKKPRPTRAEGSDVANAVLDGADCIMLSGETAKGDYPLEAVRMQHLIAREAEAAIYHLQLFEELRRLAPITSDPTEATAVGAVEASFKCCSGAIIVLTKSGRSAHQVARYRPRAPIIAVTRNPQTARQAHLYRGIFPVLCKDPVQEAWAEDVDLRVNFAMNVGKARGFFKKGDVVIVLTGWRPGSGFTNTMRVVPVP

stoichiometry N: 2
Substance: wild-type pyruvate kinase isoform M2 (PKM2^WT), P14618 1-531 (enzyme; other documents disagree on this pair)
